Laboratory results taken from patent US20160333075A1.

Biological target: enterovirus 71 (EV71) virions (enterovirus 71)
Test: cell-based or functional assay

B1: monoclonal antibody E20 produced by the hybridoma cell line EV20/5 (antibody, V domains shown)
VH: EVQLVESGGGLVKPGGSLKLSCAASGFTFNIYAMSWVRQTPEKRLEWVATISDGGSYTYYPDNVKGRFTISRDNAKNNLYLQMSHLKSEDTAMYYCVRDRGNYYSRAFPYAYWGQGTLVTVSA
VL: SIVMTQTPKFLPVSAGDRVTMTCKASQSVGNNVAWYQQKSGQSPKLLIYYASNRYTGVPDRFTGSGSGTDFTFTISSVQVEDLAVYFCQQHYSSPPTFGAGTKLELK
In the case of B1, the Inhibitory concentration 50 (IC50), Vero NIBSC is reported as 9.95 µg/mL, the PRNT50 of original hybridoma is reported as 5 µl/ml and the end point PRNT50, Vero NIBSC is reported as 10000 ng/mL.

B2: monoclonal antibody E18 produced by the hybridoma cell line EV18/4 (antibody, V domains shown)
VH: QIQLVQSGPELKKPGETVKISCKASGYTFTRYGMSWVKQAPGKGLKWMGWINTYSGVPTYADDFKGRFAFSLETSASTAYLQINNLKNEDTATYFCARRGYSNYYPMDFWGQGTSVTVSS
VL: DIKMTQSPSSMYASLGERVTITCKASQDIKSYLSWYQQKPWKSPKTLIYYAKNLADGVPSRFSGSGFGQDYSLTISSLESDDTATYYCLQHGESPYTFGSGTKLEIKR
In the case of B2, the Inhibitory concentration 50 (IC50), Vero ATCC is reported as 0.272 µg/mL, the Inhibitory concentration 50 (IC50), Vero NIBSC is reported as 0.181 µg/mL and the PRNT50 of original hybridoma is reported as 0.625 µl/ml. It also gave an end point PRNT50, Vero ATCC of 625 ng/mL and an end point PRNT50, Vero NIBSC of 312 ng/mL.
